28 molecules from PMC8443799, “Structural characterization of KKT4, an unconventional microtubule-binding kinetochore protein” can be followed below.

Series [1] addresses KKT4^2–114 (Trypanosoma brucei). As to the kind of experiment: SEC-MALS; KKT4 2-114 at lower concentrations; 25 mM HEPES pH 7.5, 150 mM NaCl, 0.5 mM TCEP.
For series [2] the target is unchanged. As to the kind of experiment: SEC-MALS; KKT4 2-114 at higher concentrations; 25 mM HEPES pH 7.5, 150 mM NaCl, 0.5 mM TCEP. For orientation: In gel filtration, larger molecules generally elute earlier.
For series [3], the target named is KKT4^101–352 (Trypanosoma brucei). The experiment in a line: SEC-MALS; KKT4 fragments; 25 mM HEPES pH 7.5, 150 mM NaCl, 0.5 mM TCEP.
Series [4] addresses Taxol-stabilised microtubules (porcine brain tubulin) (UniProt P02550). The experiment in a line: microtubule co-sedimentation assay. Particulars: parent: est. 0.90; read off a plot.
The target of series [5] is Synthetic KKT8 phosphopeptide (BA_peptide_2 (DBS1831-1)) (T. brucei). The experiment in a line: fluorescence polarisation; fluorescence anisotropy; KKT4 463-645 (from 170 μM, serially diluted 2:3) with 100 nM 5-FAM peptide probe; 25 mM HEPES pH 7.5, 50 mM NaCl, 0.5 mM TCEP; 30 min at room temperature.
The target in series [6] is SNAP-6HIS-3FLAG-KKT4 (full-length T. brucei KKT4) (Trypanosoma brucei). The experiment in a line: SEC-MALS; full-length SNAP-6HIS-3FLAG-KKT4 at higher concentrations; 25 mM HEPES pH 7.5, 340 mM NaCl, 0.5 mM TCEP; Superose 6 or Superdex 200 10/300.
The target is the same in series [7]. As to the kind of experiment: SEC-MALS; full-length SNAP-6HIS-3FLAG-KKT4 at lower concentrations; 25 mM HEPES pH 7.5, 340 mM NaCl, 0.5 mM TCEP.
Series [8] has as its target T1, KKT4 full-length (KKT4 2-645) (Trypanosoma brucei, UniProt Q580Y8 2-645).
T1 sequence: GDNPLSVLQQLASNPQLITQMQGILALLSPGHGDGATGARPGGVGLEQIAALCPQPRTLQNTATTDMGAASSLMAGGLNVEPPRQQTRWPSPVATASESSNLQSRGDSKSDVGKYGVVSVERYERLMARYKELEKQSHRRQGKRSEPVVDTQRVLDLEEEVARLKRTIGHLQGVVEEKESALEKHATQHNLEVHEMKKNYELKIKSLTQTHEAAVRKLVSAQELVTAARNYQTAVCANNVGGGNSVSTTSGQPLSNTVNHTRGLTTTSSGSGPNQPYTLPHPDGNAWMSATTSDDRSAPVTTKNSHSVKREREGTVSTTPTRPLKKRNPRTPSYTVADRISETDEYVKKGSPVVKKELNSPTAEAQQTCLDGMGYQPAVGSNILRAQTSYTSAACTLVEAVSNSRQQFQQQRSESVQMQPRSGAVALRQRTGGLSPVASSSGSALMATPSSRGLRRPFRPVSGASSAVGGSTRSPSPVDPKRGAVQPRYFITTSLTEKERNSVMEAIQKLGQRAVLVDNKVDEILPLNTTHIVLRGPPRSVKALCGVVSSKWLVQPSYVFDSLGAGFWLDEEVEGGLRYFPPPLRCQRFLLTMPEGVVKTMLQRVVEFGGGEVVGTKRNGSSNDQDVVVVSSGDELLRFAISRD
The experiment in a line: fluorescence anisotropy; 1 nM DNA; 25 mM HEPES pH 7.5, 50 mM NaCl, 0.5 mM TCEP, 1 nM DNA, 30 min at room temperature. The settings on record: protein: recombinant; tags: SNAP-6HIS-3FLAG (pBA925; from Sf9); chain copies: 2; label: 5' 6-FAM; blunt (only one strand printed; 50-bp dsDNA). For orientation: Fluorescence polarisation rises when a labelled molecule tumbles more slowly, as on binding a larger partner.

Broadly, the stoichiometry N is a count of units in the complex or per binding partner. What is called Kd is the equilibrium constant for the complex coming apart.

Chain of Taxol-stabilised microtubules (porcine brain tubulin) (P02550 whole entry, looked up): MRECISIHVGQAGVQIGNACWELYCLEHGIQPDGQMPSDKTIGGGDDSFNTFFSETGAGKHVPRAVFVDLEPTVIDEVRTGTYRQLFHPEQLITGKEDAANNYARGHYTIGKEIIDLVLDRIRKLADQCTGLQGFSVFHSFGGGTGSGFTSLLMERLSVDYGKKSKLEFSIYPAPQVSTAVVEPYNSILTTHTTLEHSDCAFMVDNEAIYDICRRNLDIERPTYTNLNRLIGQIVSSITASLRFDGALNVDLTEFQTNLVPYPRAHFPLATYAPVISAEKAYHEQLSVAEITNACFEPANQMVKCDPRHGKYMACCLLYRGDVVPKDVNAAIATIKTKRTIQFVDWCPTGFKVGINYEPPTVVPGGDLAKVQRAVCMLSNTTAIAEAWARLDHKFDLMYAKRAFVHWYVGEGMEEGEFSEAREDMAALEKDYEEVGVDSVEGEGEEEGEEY

As to KKT4^2–114 (domain or fragment), the stoichiometry N in series [1] was 3; in series [2], 4.

As to KKT4^101–352 (domain or fragment), in series [3], the stoichiometry N stood at 2.

In the case of “KKT4^115–343 (microtubule-binding domain) K115E”, the other: fraction bound in series [4] was found to be 0.67. Same read-out and setting: then “KKT4^115–343 (microtubule-binding domain) K132E”, with 0.6; and “KKT4^115–343 (microtubule-binding domain) K136E”, with 0.43; and “KKT4^115–343 (microtubule-binding domain) K144E”, with 0.44. The same measure, in the same setting: then “KKT4^115–343 (microtubule-binding domain) K154E”, with 0.63; and “KKT4^115–343 (microtubule-binding domain) K166E”, with 0.85. As for “KKT4^115–343 (microtubule-binding domain) K179E”, the other: fraction bound in series [4] came out at 0.77. For the molecule “KKT4^115–343 (microtubule-binding domain) K198E”, the other: fraction bound in series [4] was found to be 0.8. The same measure, in the same setting: then “KKT4^115–343 (microtubule-binding domain) K199E”, with 0.78.

In the case of “KKT4^115–343 (microtubule-binding domain) K204E”, in series [4], the other: fraction bound is 0.84.

As for “KKT4^115–343 (microtubule-binding domain) K206E”, the other: fraction bound in series [4] came out at 0.85. Still for that read-out and setting: then “KKT4^115–343 (microtubule-binding domain) K218E”, with 0.89; and “KKT4^115–343 (microtubule-binding domain) R123E”, with 0.23. Same read-out and setting: then “KKT4^115–343 (microtubule-binding domain) R126D”, with 0.46.

On to “KKT4^115–343 (microtubule-binding domain) R130D”, for which the other: fraction bound in series [4] is 0.6. On to “KKT4^115–343 (microtubule-binding domain) R140D”, for which, in series [4], the other: fraction bound turned out to be 0.48. The same measure, in the same setting: then “KKT4^115–343 (microtubule-binding domain) R141D”, with 0.43; and “KKT4^115–343 (microtubule-binding domain) R145D”, with 0.55; and “KKT4^115–343 (microtubule-binding domain) R164D”, with 0.73.

With “KKT4^115–343 (microtubule-binding domain) R167D”, the other: fraction bound in series [4] came out at 0.74. The same measure, in the same setting: then “KKT4^115–343 (microtubule-binding domain) R217D”, with 0.77; and “KKT4^115–343 (microtubule-binding domain) R230D”, with 0.6. As for “KKT4^463–645 (KKT4 BRCT domain) (domain or fragment)”, the Kd in series [5] was found to be 30 µM. The molecule KKT4^463–645 K543A (domain or fragment) displayed a fold decrease of binding affinity against wild-type KKT4 BRCT in series [5] of 10 fold.

Take “SNAP-6HIS-3FLAG-KKT4 (full-length T. brucei KKT4) (natural protein)”: the stoichiometry N was found to be 4 in series [6] and 2 in series [7].

B1: BA3098 50-bp CIR147 DNA probe (dsDNA)
DNA 1: CAATATGTAAGGTGTTTTGGTGTAAAACACGCATTCTTGCATAACATGCA
DNA 2: TGCATGTTATGCAAGAATGCGTGTTTTACACCAAAACACCTTACATATTG
For the molecule B1, in series [8], the Kd turned out to be 0.011 µM.
